Assay results published in the supplement of paper PMC9170038.

What was measured:
[1] = tested on: MS2 coat protein; assay: apparent KD of MS2 coat protein; higher = weaker reporter binding; conditions: Eterna round: R107
Protocol: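 RNA-MaP round R107: designed RNA switches with theophylline, tryptophan, arginine or FMN aptamers are transcribed on-chip within common flanks. They are titrated with SNAP-549-labelled MS2 coat protein in RNA-MaP buffer (100 mM Tris pH 7.5, 80 mM KCl, 4 mM MgCl2), without ligand or with the indicated ligand. Median apparent KD per design.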

[2] = tested on: MS2 coat protein; assay: apparent KD of MS2 coat protein; designed switch direction (-1 OFF switch, 1 ON switch): 1; higher = weaker reporter binding
Outline: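 Stalled E. coli RNA polymerase transcribed designed RNA switches on Illumina chips, which were then titrated with SNAP-549-labelled MS2 coat protein, doubling from 0.7 or 1.5 nM to 3 µM. Steps lasted from 0.8–1.5 h at the lowest concentration to 10–20 min at the highest. The apparent KD is each design's median over clusters of curve-fitted normalised fluorescence.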

[3] = input ligand: theophylline 20 uM
[4] = input ligand: theophylline 2 mM
[5] = input ligand: tryptophan 2.4 mM
[6] = input ligand: microRNA oligo, concentration not stated
[7] = Eterna round: R95, input ligand: FMN 200 uM
[8] = Eterna round: R95, input ligand: microRNA oligo, concentration not stated
[9] = Eterna round: R95, input ligand: none

AAAAGAGGUGGAAGGAGCGGGAGACAUGAGGAUCACCCAUGUGAAGUGACGAAAGGAUCAGCCCAGGUAGGUCGCCAUGUCGAAA [yuiiumullin]
apparent KD of MS2 coat protein ([1]; input ligand: arginine 13.2 mM): 31 nM | apparent KD of MS2 coat protein ([1]; input ligand: none): 43.9 nM | apparent KD of MS2 coat protein [1, 3]: 73.2 nM | apparent KD of MS2 coat protein [1, 4]: 25.9 nM | apparent KD of MS2 coat protein [1, 5]: 41.3 nM

AAAAGAGGUGGAAGGAGCGGGAGACAUGAGGAUCACCCAUGUGAAGUGACGAAAGGAUCAUCCCAGGUAGGUCGCCAUGUCGAAA [csstmullin]
apparent KD of MS2 coat protein ([1]; input ligand: arginine 13.2 mM): 5.43 nM | apparent KD of MS2 coat protein ([1]; input ligand: none): 147 nM | apparent KD of MS2 coat protein [1, 3]: 44.6 nM | apparent KD of MS2 coat protein [1, 4]: 39 nM | apparent KD of MS2 coat protein [1, 5]: 21.7 nM

AAACAUGAGGAUCACCCAUGUGCUCCUGUCCGAGGACCGGUACGGCCGCCACUCGGUUCUCGGGAGGAUGGUCAAAGACUAUCCA [Omei Trp A SS B v10]
apparent KD of MS2 coat protein ([1]; input ligand: arginine 13.2 mM): 60.7 nM | apparent KD of MS2 coat protein ([1]; input ligand: none): 50.6 nM | apparent KD of MS2 coat protein [1, 3]: 44.7 nM | apparent KD of MS2 coat protein [1, 4]: 57.8 nM | apparent KD of MS2 coat protein [1, 5]: 48.8 nM

AAACGCCACGGAAGGAGCGACAUGAGGAUCACCCAUGUAGAUUUGGCGGAUGCACCCUCCUGUCAGGUAGGUCGCCGUGCGAUAA [XArg-B25]
apparent KD of MS2 coat protein ([1]; input ligand: arginine 13.2 mM): 33.9 nM | apparent KD of MS2 coat protein ([1]; input ligand: none): 60.8 nM | apparent KD of MS2 coat protein [1, 3]: 109 nM | apparent KD of MS2 coat protein [1, 4]: 89 nM | apparent KD of MS2 coat protein [1, 5]: 86.6 nM

AACAUGAGGAUCACCCAUGUAAAACCGGUACGAGGACCGGUACGGCCGCCACUCGAAACAUGAGGAUCACCCAUGUAAUAAUAUU [Same State Trypophan A GF 21]
apparent KD of MS2 coat protein ([1]; input ligand: arginine 13.2 mM): 35.2 nM | apparent KD of MS2 coat protein ([1]; input ligand: none): 63.5 nM | apparent KD of MS2 coat protein [1, 3]: 75 nM | apparent KD of MS2 coat protein [1, 4]: 68.6 nM | apparent KD of MS2 coat protein [1, 5]: 91.3 nM

AACAUGAGGAUCACCCAUGUAUUGGGUGAUACCAGCCUGAAUAAGGGCCCUUGGCAGCACCGCGCUAACUUUAUGUCUGCGAACC [Rebiercete]
apparent KD of MS2 coat protein ([1]; input ligand: arginine 13.2 mM): 511 nM | apparent KD of MS2 coat protein ([1]; input ligand: none): 54.1 nM | apparent KD of MS2 coat protein [1, 3]: 432 nM | apparent KD of MS2 coat protein [1, 4]: 368 nM | apparent KD of MS2 coat protein [1, 5]: 277 nM

UUGAAGAAUUAAGGAUAUUGAAUACAUAUGUUUAACAUGAGGAUCACCCAUGUGGGUUGCGGUGUCGAGAAGGUAAAAUAAUAG [Mat - same State NG 2 - JL mod - D95] (Eterna round: R96, puzzle: Same State NG 2)
apparent KD of MS2 coat protein ([2]; input ligand: FMN 200 uM): 194 nM | apparent KD of MS2 coat protein [2, 6]: 124 nM | apparent KD of MS2 coat protein ([2]; input ligand: none): 329 nM

UUGAAGAAUUAAGGAUAUUGAGUACAUAUGUUUAACAUGAGGAUCACCCAUGUGGGUUGCGGUAUCGAGAAGGUAAAAUACUAG [Mat - same State NG 2 - JL mod - D73] (Eterna round: R96, puzzle: Same State NG 2)
apparent KD of MS2 coat protein ([2]; input ligand: FMN 200 uM): 156 nM | apparent KD of MS2 coat protein [2, 6]: 126 nM | apparent KD of MS2 coat protein ([2]; input ligand: none): 87.9 nM

UUGAAGAAUUAAGGAUAUUGAUUACAUAUGUUAAACAUGAGGAUCACCCAUGUGGGUUGCGGUAUCGAGAAGGUAAAUUAAUAG [Mat - same State NG 2 - JL mod - D77] (Eterna round: R96, puzzle: Same State NG 2)
apparent KD of MS2 coat protein [2, 6]: 89.6 nM

UUGAAGAAUUAAGGAUAUUGAUUACAUAUGUUAAACAUGAGGAUCACCCAUGUGGGUUGCGGUAUCGAGAAGGUAAAUUACUAG [Mat - same State NG 2 - JL mod - D76] (Eterna round: R96, puzzle: Same State NG 2)
apparent KD of MS2 coat protein ([2]; input ligand: FMN 200 uM): 63.3 nM | apparent KD of MS2 coat protein [2, 6]: 74.1 nM | apparent KD of MS2 coat protein ([2]; input ligand: none): 87.3 nM

UUGAGAUGUACAGGAUAUGGUGAGGAUCACCCACUAGAAGGGUGCACAUGUGAAUCGGACAUGAGGAUCACCCAUGUUGGGCGU (Eterna round: R96, puzzle: Same State NG 1)
apparent KD of MS2 coat protein ([2]; input ligand: FMN 200 uM): 108 nM | apparent KD of MS2 coat protein [2, 6]: 224 nM | apparent KD of MS2 coat protein ([2]; input ligand: none): 209 nM

UUGAUUAACGUAGGAUAUCGACCUACAUGAGGAUCACCCAUGUCUUUGAAUAGAUUUUUUUGUUACGAGAAGGACGUUAUGUAU [JR_SSNG2_Sub066] (Eterna round: R96, puzzle: Same State NG 2)
apparent KD of MS2 coat protein ([2]; input ligand: FMN 200 uM): 40.7 nM | apparent KD of MS2 coat protein [2, 6]: 49.6 nM | apparent KD of MS2 coat protein ([2]; input ligand: none): 89.4 nM

UUGCAGUCAGGUGAGGAUAUCAUGAAUUUAACAUGAGGAUCACCCAUGUGCUGCCUUGCAGCAUAUGAGAAGGCACCUGGCUGCU [JL-ss2-3.02 Brourd Mod] (puzzle: Same State 2)
apparent KD of MS2 coat protein [2, 7]: 106 nM | apparent KD of MS2 coat protein [2, 8]: 923 nM | apparent KD of MS2 coat protein [2, 9]: 859 nM

UUGCCGCGGGUAGGAUAUGGUCACACUUCUAAAACAUGAGGAUCACCCAUGUCCGACACAUAAAGCCAGAAGGACCCGCGGCUC [Erisriin] (Eterna round: R96, puzzle: Same State NG 2)
apparent KD of MS2 coat protein ([2]; input ligand: FMN 200 uM): 18.2 nM | apparent KD of MS2 coat protein [2, 6]: 47.4 nM | apparent KD of MS2 coat protein ([2]; input ligand: none): 77.3 nM

UUGCGCUGUCGAGAGGAUAUGCGGUGAUGGACAUGAGGAUCACCCAUGUUAGCGAUAGCAUUACGGUAGAAGGCUCUACAGCUGC [salish99_ss2_r3_094] (puzzle: Same State 2)
apparent KD of MS2 coat protein [2, 7]: 13 nM | apparent KD of MS2 coat protein [2, 8]: 21.5 nM | apparent KD of MS2 coat protein [2, 9]: 21.9 nM

UUGCGGGAUUAAGGAUAUUGAGUACAUAUGUUUAACAUGAGGAUCACCCAUGUGGGUUGCGGUAUCGAGAAGGUAACUUACUAC [salish99_SSNG2_r04_804] (Eterna round: R96, puzzle: Same State NG 2)
apparent KD of MS2 coat protein ([2]; input ligand: FMN 200 uM): 92.9 nM | apparent KD of MS2 coat protein [2, 6]: 79.3 nM | apparent KD of MS2 coat protein ([2]; input ligand: none): 96.3 nM

UUGCGGGCUUGAGGAUAUUGAGUACAUAUGUUUAACAUGAGGAUCACCCAUGUGGGUUGCGGUAUCGAGAAGGUAACUUCCUCC [salish99_SSNG2_r04_809] (Eterna round: R96, puzzle: Same State NG 2)
apparent KD of MS2 coat protein ([2]; input ligand: FMN 200 uM): 169 nM | apparent KD of MS2 coat protein [2, 6]: 124 nM | apparent KD of MS2 coat protein ([2]; input ligand: none): 163 nM

UUGCUCGUGUGAGGAUAUGCAGCCGUUUCGGCUGCAGAAGGUACUAUAAUACAUGAGGAUCACCCAUGUCUCUAUUAUUUAGUG [salish99_SSNG1_r04_926] (Eterna round: R96, puzzle: Same State NG 1)
apparent KD of MS2 coat protein ([2]; input ligand: FMN 200 uM): 19.5 nM | apparent KD of MS2 coat protein [2, 6]: 19.2 nM | apparent KD of MS2 coat protein ([2]; input ligand: none): 28.7 nM

UUGUUUCGUCAUUAACAUGAGGAUCACCCAUGUAUCGACUCAAAGGAUAUAUAUGCUUGUUUGCAAUAGAAGGUUGAUUGUUGU [JR_SSNG3_Sub092] (Eterna round: R96, puzzle: Same State NG 3)
apparent KD of MS2 coat protein [2, 6]: 28.1 nM

UUUAAACAUGAGGAUCACCCAUGUCAACAAAGUCGAGGAUAUGGGCAAAUAAAAUAAGAACCAGAAGGCGAAUAAU [salish99_ss1_r3_068] (puzzle: Same State 1)
apparent KD of MS2 coat protein [2, 7]: 49.2 nM | apparent KD of MS2 coat protein [2, 8]: 585 nM | apparent KD of MS2 coat protein [2, 9]: 334 nM

UUUACUUUCAUAGGAUAUCAUGCGAAAAUUGCGUGAGAAGGGUGCACACUGUCUUUCUAGGAGUACAUGAGGAUCACCCAUGUG [SameState NG1 #66] (Eterna round: R96, puzzle: Same State NG 1)
apparent KD of MS2 coat protein ([2]; input ligand: FMN 200 uM): 52.4 nM | apparent KD of MS2 coat protein [2, 6]: 48.3 nM | apparent KD of MS2 coat protein ([2]; input ligand: none): 50.9 nM

UUUAGCGUUACAGGAUAUGGUGAGGAUUACCCACUAGAAGGGUAAACAUGUGCGUCGUACAUGAGGAUCACCCAUGUAGGGCGU (Eterna round: R96, puzzle: Same State NG 1)
apparent KD of MS2 coat protein ([2]; input ligand: FMN 200 uM): 20.6 nM | apparent KD of MS2 coat protein [2, 6]: 15.5 nM | apparent KD of MS2 coat protein ([2]; input ligand: none): 20.6 nM

UUUAGUUGCGCGCAGGAUAUGUAUUAAUAUACAUGAGGAUCACCCAUGUGAGACCAAAUAGGUCUGCAGAAGGGCGAAUCGCGAC [Laonerce - 28] (puzzle: Same State 2)
apparent KD of MS2 coat protein [2, 7]: 45.4 nM | apparent KD of MS2 coat protein [2, 8]: 139 nM | apparent KD of MS2 coat protein [2, 9]: 199 nM

UUUAGUUGCGGGCAGGAUAUGUAUUAAAAUACAUGAGGAUCACCCAUGUGAGGUCAUAACGACCUACAGAAGGGCCAAUCGCGAC [Laonerce - 15] (puzzle: Same State 2)
apparent KD of MS2 coat protein [2, 7]: 17.2 nM | apparent KD of MS2 coat protein [2, 8]: 64.4 nM | apparent KD of MS2 coat protein [2, 9]: 86.1 nM

UUUAGUUGCGGGCAGGAUAUGUAUUAAUAUACAUGAGGAUCACCCAUGUGAGAUCGAAUAGAUCUACAGAAGGGCCAAUCGCGAC [Laonerce - 25] (puzzle: Same State 2)
apparent KD of MS2 coat protein [2, 7]: 19.8 nM | apparent KD of MS2 coat protein [2, 8]: 133 nM | apparent KD of MS2 coat protein [2, 9]: 188 nM

UUUAUAGGCGCAGGAUAUGGUGAGGAUCACCCACUAGAAGGGUGCACAUGAGAAUCGGACAUGAGGAUCACCCAUGUCCGGCGC (Eterna round: R96, puzzle: Same State NG 1)
apparent KD of MS2 coat protein ([2]; input ligand: FMN 200 uM): 915 nM | apparent KD of MS2 coat protein [2, 6]: 201 nM | apparent KD of MS2 coat protein ([2]; input ligand: none): 526 nM

UUUGCAUUGCAAGGAUAUUGAUAACAUGAGGAUCACCCAUGUAUAGGUUCAGGAUUUACGAGUAACAAGAAGGUGCUAUUGUUU [JR_SSNG2_Sub040] (Eterna round: R96, puzzle: Same State NG 2)
apparent KD of MS2 coat protein ([2]; input ligand: FMN 200 uM): 27.6 nM | apparent KD of MS2 coat protein [2, 6]: 20.7 nM | apparent KD of MS2 coat protein ([2]; input ligand: none): 31.8 nM

UUUGGGUGGCUGGAGGAUAUUCGAGUGGUAACAUGAGGAUCACCCAUGUGUCGCGCGGUACACGAGGAGAAGGCUGGCGGCCGUU (puzzle: Same State 2)
apparent KD of MS2 coat protein [2, 8]: 41.7 nM
